These are literature values, as cited in publication PMC7605336.

In this data set the target is Spike protein RBD (SARS-CoV-2) (UniProt P0DTC2).

On to “SBP1 (ACE2 α1 helix-derived 23-mer peptide) α1 helix (from UniProt Q9BYF1)”, for which the Kd was 47 nM.
